Common to all, as to experiment: cell_activity
One data set deals with ZFN 25023 (synthetic). The following applies: pair with 12942, PBMC, 37C day 3.
In the next data set the test system is ZFN 25027 (synthetic). As to conditions: pair with 12942, PBMC, 37C day 3.
For a further data set, the system named is ZFN 25016 (synthetic). As to conditions: pair with 12942, PBMC, 37C day 3.
The next data set concerns ZFN 25028 (synthetic). The following applies: pair with 12942, PBMC, 37C day 3.
A further data set relates to ZFN 25032 (synthetic). As to conditions: pair with 12942, PBMC, 37C day 3.
The subject of a further data set is ZFN 25015 (synthetic). The following applies: pair with 12942, PBMC, 37C day 3; helices printed identical to 25014.
The subject of a further data set is ZFN 25034 (synthetic). The following applies: pair with 12942, PBMC, 37C day 3.
The next data set deals with ZFN 25041 (synthetic). As to conditions: pair with 12942, PBMC, 37C day 3.
In a further data set the test system is ZFN 25029 (synthetic). As to conditions: pair with 12942, PBMC, 37C day 3.
The next data set relates to ZFN 18759 (synthetic). The following applies: pair with 12942, PBMC, 37C day 3.
The subject of a further data set is ZFN 25010 (synthetic). The following applies: pair with 12942, PBMC, 37C day 3.
The subject of a further data set is ZFN 25017 (synthetic). The following applies: pair with 12942, PBMC, 37C day 3.
The test system of another data set is ZFN 25006 (synthetic). The following applies: pair with 12942, PBMC, 37C day 3.
A further data set has as its system ZFN 25040 (synthetic). As to conditions: pair with 12942, PBMC, 37C day 3.
For the next data set, the system named is ZFN 25025 (synthetic). As to conditions: pair with 12942, PBMC, 37C day 3.
In another data set the test system is ZFN 25013 (synthetic). As to conditions: pair with 12942, PBMC, 37C day 3.
The next data set deals with ZFN 25031 (synthetic). As to conditions: pair with 12942, PBMC, 37C day 3.
For a further data set, the system named is ZFN 25011 (synthetic). As to conditions: pair with 12942, PBMC, 37C day 3.
A further data set relates to ZFN 25014 (synthetic). The following applies: pair with 12942, PBMC, 37C day 3.
A further data set relates to ZFN 25005 (synthetic). As to conditions: pair with 12942, PBMC, 37C day 3.
The next data set has as its system ZFN 25030 (synthetic). As to conditions: pair with 12942, PBMC, 37C day 3; F3 printed RPMHUTN.
The subject of the next data set is ZFN 25012 (synthetic). The following applies: pair with 12942, PBMC, 37C day 3.
Another data set deals with ZFN 25036 (synthetic). As to conditions: pair with 12942, PBMC, 37C day 3; helices printed identical to 25031.
Another data set relates to ZFN 25022 (synthetic). As to conditions: pair with 12942, PBMC, 37C day 3.
The subject of another data set is ZFN 12942 (synthetic). The following applies: pair with 12947, day 3, K562.
Another data set has as its system ZFN 12971 (synthetic). The following applies: pair with 12934, day 3, K562.
Another data set relates to ZFN 12972 (synthetic). As to conditions: pair with 12934, day 3, K562.
In the next data set the test system is ZFN 12934 (synthetic). As to conditions: pair with 12971 or 12972, day 3, K562.

“CAGTCGTCTGGGCGGTGCT (double strand) [PD1 exon 1 18759/250xx site]”: the activity in the data set on ZFN 25023 (synthetic) was found to be 3.1 % NHEJ; in the data set with ZFN 25027 (synthetic), 6 % NHEJ; in the data set on ZFN 25016 (synthetic) it was 7.3 % NHEJ; with ZFN 25028 (synthetic) it was 4.3 % NHEJ; in the data set with ZFN 25032 (synthetic), 6.7 % NHEJ; in the data set with ZFN 25015 (synthetic), 3.9 % NHEJ. Further, the activity was found to be 4.9 % NHEJ in the data set with ZFN 25034 (synthetic); 7.9 % NHEJ in the data set on ZFN 25041 (synthetic); 8.1 % NHEJ in the data set on ZFN 25029 (synthetic); 4.7 % NHEJ with ZFN 18759 (synthetic); 4.9 % NHEJ in the data set on ZFN 25010 (synthetic); 7.7 % NHEJ in the data set with ZFN 25017 (synthetic). The activity with ZFN 25006 (synthetic) amounted to 2.9 % NHEJ; in the data set with ZFN 25040 (synthetic), 6.1 % NHEJ; with ZFN 25025 (synthetic) it was 8.8 % NHEJ; in the data set with ZFN 25013 (synthetic), 3.7 % NHEJ; in the data set with ZFN 25031 (synthetic) it was 9.4 % NHEJ; in the data set with ZFN 25011 (synthetic), 3.1 % NHEJ. Further, the activity in the data set on ZFN 25014 (synthetic) is 10.7 % NHEJ; in the data set on ZFN 25005 (synthetic), 4.4 % NHEJ; with ZFN 25030 (synthetic), 7.6 % NHEJ; in the data set on ZFN 25012 (synthetic), 5.9 % NHEJ; in the data set with ZFN 25036 (synthetic) it was 8.3 % NHEJ; in the data set on ZFN 25022 (synthetic), 3.6 % NHEJ.
In the data set with ZFN 12942 (synthetic), “CCAGGGCGCCTGTGGGATCTGCATGCCT (double strand) [PD1 exon 1 12942 site]” showed an activity of 10 % NHEJ.
In the case of “CTGTGGACTATGGGGAGCTGGATTTCCA (double strand) [PD1 exon 5 12971/12972 site]”, the activity in the data set with ZFN 12971 (synthetic) and with ZFN 12972 (synthetic) was 11 % NHEJ in each case.
Take “GAACACAGGCACGGCTGAGGGGTCCTCC (double strand) [PD1 exon 5 12934 site]”: in the data set on ZFN 12934 (synthetic), the activity amounted to 11 % NHEJ.

(Values after patent US8563314.)
